Target: MSLN (UniProt Q13421)
Assay: BLI

Chain of MSLN (Q13421 other isoform, or with tags, fused parts or gaps limits assumed): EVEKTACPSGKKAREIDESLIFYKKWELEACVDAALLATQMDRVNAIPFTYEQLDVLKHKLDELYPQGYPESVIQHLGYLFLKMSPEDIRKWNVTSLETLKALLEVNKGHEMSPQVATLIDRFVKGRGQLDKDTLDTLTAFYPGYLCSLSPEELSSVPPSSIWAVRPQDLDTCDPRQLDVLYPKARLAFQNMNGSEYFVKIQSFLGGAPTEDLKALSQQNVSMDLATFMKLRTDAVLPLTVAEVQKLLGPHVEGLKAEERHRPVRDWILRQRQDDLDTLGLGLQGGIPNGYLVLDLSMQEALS

B1: nanobody NM5 (VHH)
VHH: DVQLQESGGGLVQAGGSLRLSCVGAGVSFSPYGIGWWRQAQGNQREWVASIYRSGSTNYEDFAKDRFTISRDNTKNTAYLQMNSLKPEDTAVYYCQILGTSYRGQGTQVTVSS
Kd: 11.4 nM

From patent publication US20250312453A1
